This passage reports cleavage activity relative to wild type (fraction of wt/wt), activity and activity (% GFP-positive cells) results from US20080131962.

The subject of data set [1] is ZFN pair E490K/Q486E (synthetic construct). Nature of the data set: cleavage_in_vitro. The following applies: average of both orientations.
For data set [2], the system named is ZFN pair L-/R- (Q486E:I499L both) (synthetic construct). Nature of the data set: cleavage_in_vitro. The following applies: cleavage lost through lack of dimerization, not of ZFP binding.
Data set [3] relates to ZFN pair Q486E/Q486E (synthetic construct). Nature of the data set: cleavage_in_vitro. The following applies: same variant on L and R.
Data set [4] relates to ZFN pair E490K/wt (synthetic construct). As to the kind of experiment: cleavage_in_vitro. The following applies: average of both orientations.
Data set [5] has as its system ZFN pair E490K/Q486E:I499L (synthetic construct). Nature of the data set: cleavage_in_vitro. The following applies: average of both orientations.
The test system of data set [6] is ZFN pair E490K:I538K/wt (synthetic construct). Nature of the data set: cleavage_in_vitro. The following applies: average of both orientations.
In data set [7] the test system is ZFN pair Lwt/Rwt (wild-type FokI cleavage domains) (synthetic construct). Nature of the data set: cleavage_in_vitro. The following applies: six-fold diluted ZFN, FokI buffer pH 8.5, 2 mM MgCl2, 10 uM ZnCl2, 37 C 2 h.
Data set [8] deals with ZFN pair E490K/E490K (synthetic construct). As to the kind of experiment: cleavage_in_vitro. To be noted: same variant on L and R.
The test system of data set [9] is ZFN pair L+/R- (L-E490K:I538K, R-Q486E:I499L) (synthetic construct). Nature of the data set: cleavage_in_vitro.
The subject of data set [10] is ZFN pair Q486E/wt (synthetic construct). Nature of the data set: cleavage_in_vitro. The following applies: average of both orientations.
The test system of data set [11] is ZFN pair E490K:I538K/Q486E (synthetic construct). As to the kind of experiment: cleavage_in_vitro. The following applies: average of both orientations.
Data set [12] deals with ZFN pair Q486E:I499L/wt (synthetic construct). As to the kind of experiment: cleavage_in_vitro. The following applies: average of both orientations; printed I449L in table.
The subject of data set [13] is ZFN pair L+/R+ (E490K:I538K both) (synthetic construct). As to the kind of experiment: cleavage_in_vitro. To be noted: cleavage lost through lack of dimerization, not of ZFP binding.
Data set [14] concerns ZFN pair L-/R+ (L-Q486E:I499L, R-E490K:I538K) (synthetic construct). As to the kind of experiment: cleavage_in_vitro. The following applies: 2 mM MgCl2, 37 C 2 h.
The test system of data set [15] is ZFN pair L-/R- in cells (synthetic construct). As to the kind of experiment: cell_activity. To be noted: forced homodimer of cleavage domains.
For data set [16], the system named is ZFN pair L-/R+ in cells (synthetic construct). Nature of the data set: cell_activity. To be noted: HEK293 GFP gene correction.
In data set [17] the test system is ZFN pair L+/R- in cells (synthetic construct). Nature of the data set: cell_activity. The following applies: HEK293 GFP gene correction.
Data set [18] has as its system ZFN pair L+/R+ in cells (synthetic construct). Nature of the data set: cell_activity. To be noted: forced homodimer of cleavage domains.
For data set [19], the system named is ZFN pair Lwt/Rwt in cells (synthetic construct). As to the kind of experiment: cell_activity. To be noted: HEK293 GFP gene correction.

As for “TGTTCGGAGCCGCTTTAACCCACTCTGTGGAAGTGCT (double strand) [LR heterodimer target]”, the cleavage activity relative to wild type (fraction of wt/wt) is 0.96 in data set [1]; 0 in data set [2]; 0.19 in data set [3]; 1 in data set [4]; 0.97 in [5]; 0.74 in [6]. Moreover, the cleavage activity relative to wild type (fraction of wt/wt) in data set [8] worked out at 0.96; in data set [9] (average of L+/R- and L-/R+, printed I449L in table), 0.48; in [10] it was 0.68; in data set [11], 0.32; in data set [12] it was 0.48; in data set [13], 0. Besides, the activity is 61 % cleaved in data set [7]; 50 % cleaved in data set [9] (2 mM MgCl2, 37 C 2 h); 50 % cleaved in [14].
For the sequence “TGTTCGGAGCCGCTTTAACCCACTCTGTGGAAGTGCT (double strand) [IL2Rgamma ZFN target in eGFP reporter or endogenous locus]”, the activity (% GFP-positive cells) in [15] was 0.12; in [16], 1.71; in data set [17] it was 1.98; in data set [18], 0.02; in data set [19], 1.27.
